Assay [1] has as its system mixed culture of cell lines GFG, EPG, TPG and parental Ba/F3. The assay is described as follows: Cytokine responses in mixed and individual cell cultures (Example 2). The format is cell-based, mouse. Particulars: mixed culture of four cell lines (each 4×10^3 cells/well), similar in individual cultures, 72 hours, WST-8; listed as hTPO. How it is done:
Mixed culture of the cell lines GFG, EPG, and TPG, which express human G-CSF, EPO, and TPO chimeric receptors, respectively, and their parental cell line Ba/F3 was conducted and their response to various cytokines was examined.
The cells were washed twice with RPMI1640 media containing 2% fetal bovine serum, and then were suspended in RPMI1640 containing 10% fetal bovine serum. The four cell lines were mixed by adjusting each of the cell lines to 4×10^4 cells/mL (16×10^4 cells/mL in total) for the mixed culture, and, for individual cultures, cells were prepared at 4×10^4 cells/mL. 100 μL each of the cells were independently seeded on a 96-well microtiter plate (flat bottom, Falcon). After adding 100 μL/well each of appropriately diluted cytokines, the cultures were cultured for 72 hours in a CO2 incubator (5% CO2 concentration). After the culture, 10 μL/well WST-8 reagent (Cell Count Reagent SF; Nacalai Tesque) was added, and pre-reaction absorbance at a measurement wavelength of 450 nm and a control wavelength of 655 nm was measured using a microplate reader (Model 3550, Bio Rad). The plate was incubated for two hours in a CO2 incubator (CO2 concentration, 5%), and post-reaction absorbance was measured as above. Data were graphed out taking the cytokine concentrations on the horizontal axis and the amount of changes in absorbance after 2-hour incubation on the vertical axis (FIGS. 18, 19, and 20).
(Formazan colour is commonly taken as a measure of viable cells.)

Assay [2] concerns the target T1, chimeric TPO receptor (human TPO receptor extracellular domain / mouse G-CSF receptor) in Ba/F3 cell line TPG (Homo sapiens, UniProt P40238).
T1 construct: from the 1st to the 491st amino acid residues; expressed in transfected cells; host or cells: mouse Ba/F3 cells, clone TPG#219 = TPG
T1 sequence (P40238 26-491): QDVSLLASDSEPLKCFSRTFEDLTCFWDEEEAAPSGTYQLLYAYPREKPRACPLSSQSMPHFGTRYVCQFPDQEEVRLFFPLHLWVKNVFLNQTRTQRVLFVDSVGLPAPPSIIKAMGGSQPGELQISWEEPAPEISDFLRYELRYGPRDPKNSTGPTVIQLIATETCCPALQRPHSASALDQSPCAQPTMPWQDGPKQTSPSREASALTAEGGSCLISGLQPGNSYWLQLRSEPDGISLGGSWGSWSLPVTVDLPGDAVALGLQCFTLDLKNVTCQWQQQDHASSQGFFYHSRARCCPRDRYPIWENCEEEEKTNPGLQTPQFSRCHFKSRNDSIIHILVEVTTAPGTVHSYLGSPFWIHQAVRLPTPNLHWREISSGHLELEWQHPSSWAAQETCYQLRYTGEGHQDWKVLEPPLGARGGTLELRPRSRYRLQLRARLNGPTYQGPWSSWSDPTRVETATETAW
The assay is described as follows: Growth response of chimeric TPO receptor-expressing Ba/F3 cell line TPG (WST-8). To be noted: 72 hours culture, WST-8 absorbance. The format is cell-based. An excerpt:
A chimeric receptor cDNA was constructed by linking cDNA fragments encoding the extracellular domain (from the 1st to the 491st amino acid residues; Vigon, I. et al. (1992) Proc. Natl. Acad. Sci. USA 89, 5640-5644) of human TPO receptor, and the transmembrane and intracellular domains (from the 602nd to the 813th amino acid residues; Fukunaga, R. et al. (1990) Cell 61, 341-350) of mouse G-CSF receptor. The cDNA was inserted downstream of the EF1α promoter of the mammalian expression vector pCOS-G to construct chimeric receptor-expression vector TG/pCOS-G. TG/pCOS-G was linearized with Pvu I (Takara Shuzo), extracted with phenol and chloroform, and purified by ethanol precipitation.
The linearized expression gene vector was introduced into mouse Ba/F3 cells (purchased from RIKEN; Cell No.: RCB0805) using an electroporation apparatus (Gene Pulser: Bio Rad) The Ba/F3 cells were washed twice with Dulbecco's PBS (hereinafter referred to as PBS), and then were suspended in PBS to give a cell density of about 1×10^7 cells/mL. […]
The cells were washed twice with Media A, and were suspended in Media A to give a cell density of 5×10^4 cells/mL. […] The absorbance at a measurement wavelength of 450 nm and a control wavelength of 655 nm after the 2 hours incubation was measured using microplate reader (Model 3550, Bio Rad).

The target of assay [3] is T2, chimeric IL-10 receptor (human IL-10Rα and IL-10Rβ / mouse G-CSF receptor) in Ba/F3 cell line 10G (Homo sapiens, UniProt Q08334+Q13651).
T2 construct: from the 1st to the 235th amino acid residue; from the 1st to the 220th amino acid residues; expressed in transfected cells; host or cells: mouse Ba/F3 cells co-transfected with pCV-cIL10Rα and pCV-cIL10Rβ, clone 10G#10 = 10G
T2 sequence (Q13651 22-235): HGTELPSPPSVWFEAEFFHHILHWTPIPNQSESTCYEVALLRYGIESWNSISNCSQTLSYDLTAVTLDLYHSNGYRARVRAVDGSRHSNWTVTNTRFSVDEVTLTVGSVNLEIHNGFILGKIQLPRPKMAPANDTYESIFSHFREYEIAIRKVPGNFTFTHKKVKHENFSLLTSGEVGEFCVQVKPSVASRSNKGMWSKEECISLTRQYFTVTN
T2 sequence (Q08334 20-220): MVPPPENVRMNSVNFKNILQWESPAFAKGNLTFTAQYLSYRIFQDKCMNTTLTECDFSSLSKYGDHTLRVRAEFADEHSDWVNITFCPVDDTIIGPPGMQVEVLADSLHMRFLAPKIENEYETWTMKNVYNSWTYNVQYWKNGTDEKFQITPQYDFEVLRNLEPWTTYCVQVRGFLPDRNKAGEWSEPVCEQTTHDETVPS
T2 sequence (P40223 627-837 partner limits assumed): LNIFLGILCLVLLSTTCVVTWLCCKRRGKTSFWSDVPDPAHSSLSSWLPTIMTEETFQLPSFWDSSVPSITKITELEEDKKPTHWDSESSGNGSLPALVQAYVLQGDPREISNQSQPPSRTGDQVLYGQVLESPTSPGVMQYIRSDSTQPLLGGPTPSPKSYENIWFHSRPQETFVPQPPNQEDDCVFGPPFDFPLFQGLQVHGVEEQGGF
The assay is described as follows: Growth response of chimeric IL-10 receptor-expressing Ba/F3 cell line 10G (WST-8). It counts as cell-based. To be noted: 72 hours culture, WST-8 absorbance. An excerpt:
Chimeric receptor cDNAs were constructed by linking cDNA fragments encoding the α chain (IL-10Rα) (from the 1st to the 235th amino acid residue; Liu, Y. et al. (1994) J. Immunol. 152, 1821-1829) and the hIL-10R subunit (CRFB4; IL-10Rβ) extracellular domain (from the 1st to the 220th amino acid residues; Lutfalla, G. et al. (1993) Genomics 16, 366-373) of human IL-10 receptor with the transmembrane and intracellular domains (from the 602nd to the 813th amino acid residues; Fukunaga, R. et al. (1990) Cell 61, 341-350) of mouse G-CSF receptor, respectively. […]
The cells were washed twice with Media A, and were suspended in Media A to give a cell density of 5×10^4 cells/mL. […] After the culture, 10 μL/well WST-8 reagent (Cell Count Reagent SF; Nacalai Tesque) was added, and pre-reaction absorbance at a measurement wavelength of 450 nm and a control wavelength of 655 nm was measured using microplate reader (Model 3550, Bio Rad). The plate was incubated for two hours in a CO2 incubator (CO2 concentration, 5%), and post-reaction absorbance was measured as above. […]

Regarding thrombopoietin [human TPO], the “concentration where the response was observed to start” value in assay [1] came out at 200 pg/mL. Also, in assay [2], the “concentration at which an evident growth reaction was observed” value is no less than 100 pg/mL.

“human IL-10: human interleukin 10 (Genzyme)”: in assay [3], the “concentration at which an evident growth reaction was observed” value is on record as no less than 0.5 ng/mL.
